Test results reported in patent US20230399394A1 (SUNSHINE GUOJIAN PHARMACEUTICAL SHANGHAI, published 2023).

T1: Human IL-33-his (human, UniProt O95760 112-270, biotinylated with EZ-Link NHS-Biotin where used as IL-33-his-biotin)
T1 construct: Used plain (SPR, cell assays) and biotinylated (ELISA); also called IL-33-his-biotin
T1 sequence: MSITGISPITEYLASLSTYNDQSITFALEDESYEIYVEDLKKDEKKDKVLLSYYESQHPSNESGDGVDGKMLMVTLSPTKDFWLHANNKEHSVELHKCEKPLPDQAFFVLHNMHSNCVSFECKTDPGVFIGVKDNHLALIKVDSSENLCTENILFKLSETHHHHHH

T2: IL-33 mutant protein E44A (human, UniProt O95760 112-270)
T2 construct: Prokaryotic expression
T2 chain: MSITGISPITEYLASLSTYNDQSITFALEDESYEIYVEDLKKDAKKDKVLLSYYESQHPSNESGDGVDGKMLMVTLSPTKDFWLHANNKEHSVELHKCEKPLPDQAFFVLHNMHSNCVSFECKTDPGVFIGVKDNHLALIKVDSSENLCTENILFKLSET

T3: IL-33 mutant protein K70A (human, UniProt O95760 112-270)
T3 construct: Prokaryotic expression
T3 chain: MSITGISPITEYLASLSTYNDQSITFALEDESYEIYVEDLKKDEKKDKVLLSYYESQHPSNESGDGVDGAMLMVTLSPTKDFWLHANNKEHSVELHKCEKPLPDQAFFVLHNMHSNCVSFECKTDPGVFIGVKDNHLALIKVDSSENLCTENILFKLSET

T4: IL-33 mutant protein H58A (human, UniProt O95760 112-270)
T4 construct: Prokaryotic expression
T4 chain: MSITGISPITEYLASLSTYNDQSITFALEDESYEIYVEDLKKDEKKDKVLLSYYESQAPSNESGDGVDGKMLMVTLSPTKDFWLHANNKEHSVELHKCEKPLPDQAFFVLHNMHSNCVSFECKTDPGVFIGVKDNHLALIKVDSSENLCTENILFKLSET

T5: IL-33 mutant protein V49A (human, UniProt O95760 112-270)
T5 construct: Prokaryotic expression
T5 chain: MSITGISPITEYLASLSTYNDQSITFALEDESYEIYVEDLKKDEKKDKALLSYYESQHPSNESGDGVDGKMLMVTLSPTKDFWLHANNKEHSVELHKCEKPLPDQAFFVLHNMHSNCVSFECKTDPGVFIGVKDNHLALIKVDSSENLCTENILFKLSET

T6: IL-33 protein without any mutation (WT) (human, UniProt O95760 112-270)
T6 construct: Control of the alanine scan (four runs WT-1 to WT-4); also called WT-1; WT-2
T6 sequence: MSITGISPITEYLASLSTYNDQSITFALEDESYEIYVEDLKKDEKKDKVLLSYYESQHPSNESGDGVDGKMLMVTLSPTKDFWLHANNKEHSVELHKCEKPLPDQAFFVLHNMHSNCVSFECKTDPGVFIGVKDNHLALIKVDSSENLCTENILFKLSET


What was measured:
Human IL-33-his [1] = biological target: T1, Human IL-33-his; assay: indirect ELISA, biotinylated IL-33-his on streptavidin plate
Experimental: The binding ability of murine antibody to human IL-33 protein was determined by indirect enzyme-linked immunosorbent assay (ELISA). The specific methods were as follows: The plate was pre-coated with biotin-avidin (SA) which was diluted in coating solution (50 mM carbonate coating buffer, pH 9.6) to 2 μg/ml at 4° C. overnight, then the plate was blocked with 5% skim milk powder at 37° C. for 2 hours and stored at −80° C. for later use. Biotinylated recombinant human IL-33-his protein was diluted to 0.5 μg/ml in coating solution (50 mM carbonate coating buffer, pH 9.6) and was added at 100 μl/well to the pre-coated SA plate, 37° C., 0.5 h. After washing the plate with PBST for 3 times, the antibodies to be tested were diluted by gradient with 1% BSA buffer and added into the blocked plate at 100 μl/well, and incubated at 37° C. for 1 hour. The plate was washed with PBST for 3 times, and the HRP-labeled goat anti-mouse IgG was added and placed at 37° C. for 30 min. After washing the plate with PBST for 3 times, the plate was patted on the absorbent paper to remove residual droplets as far as possible. […] OD values were read at 450 nm on the microplate reader to analyze the binding ability of the antibodies to be tested to the target antigen human IL-33-his.

[2] = biological target: T2, IL-33 mutant protein E44A; assay: ELISA as Example 9; row E44A
Experimental: (§1) SA protein was diluted to 2 μg/mL to coat ELISA plate at 100 μL/well overnight at 4° C. The plate was washed with PBST (PBS containing 0.05% Tween20) for 3 times, and blocked with 2% BSA prepared in PBS at 200 μL/well, at room temperature for 2 h. After the plate was washed twice with PBST, IL-33-his-biotin protein was diluted to 1 μg/mL with 1% BSA prepared in PBST, and was added to ELISA plate at 100 μL/well. The plate was incubated at room temperature for 1 h, and each monoclonal antibody was diluted with 1% BSA prepared in PBST in a 3-fold gradient. The highest concentration of antibody was 10 μg/mL, and the antibody was diluted for 12 gradients. Each diluted monoclonal antibody was added to ELISA wells with 100 μL/well, and the plate was incubated at room temperature for 1 h. Each sample was added to duplicate wells in parallel. The plate was washed with PBST for 3 times, and HRP-anti human IgG Fc secondary antibody prepared with PBST was diluted at an appropriate ratio, and was added to ELISA wells at 100 μL/well. […] Each reaction solution was shaken uniformly and OD450 nm was read on a microplate reader. The data was analyzed and EC₅₀ was calculated.
(§2) Subsequently, according to the experimental method of Example 9, the affinity of the above mutant proteins to 874F7-Hu1 was determined, and IL-33 proteins (WT-1, WT-2, WT-3, and WT-4) without any mutation were set as controls.

[3] = biological target: T3, IL-33 mutant protein K70A; assay: ELISA as Example 9; row K70A
Experimental: as §1, §2

[4] = biological target: T4, IL-33 mutant protein H58A; assay: ELISA as Example 9; row H58A against WT-1
Experimental: as §1, §2

[5] = biological target: T5, IL-33 mutant protein V49A; assay: ELISA as Example 9; row V49A against WT-2
Experimental: as §1, §2

[6] = biological target: T6, IL-33 protein without any mutation (WT); assay: ELISA as Example 9; row WT-1, the reference itself
Experimental: as §1, §2

Human IL-33-his [7] = biological target: T1, Human IL-33-his; assay: ELISA as Example 9, IL-33-his-biotin on streptavidin plate

Row | EC50 (Human IL-33-his [1]) [nM] | EC50 [2] [nM] | EC50 [3] [nM] | Affinity decline ratio [4] [fold] | Affinity decline ratio [5] [fold] | Affinity decline ratio [6] [fold] | EC50 (Human IL-33-his [7]) [nM] | Binder
1 | 0.11 | – | – | – | – | – | – | 874F7 (antibody, V domains shown, Murine hybridoma antibody purified on Protein G; also called murine antibody 874F7) VH: QVQLKESGPGLVAPSHSLSITCNVSGFSLSKYGVHWIRQIPGRGLDWLGVLRAGGSTGYNSALMSRLSISKDSSKSQVFLKMNDLRTDDTAVYFCVRDHYYYSSYGGFVYWGQGTLVTVSA VL: DIQMTQSPASQSASLGESVTITCLASQTIGAWLAWYRQQPGKSPQLLIYAATRLADGVPSRFSGSGSGTEFSFKINNLQAEDFVSYYCQQLDSSPYTFGGGTRLEM
2 | – | 0.13 | 0.11 | 1.9 | > 25 | 1 | 0.129 | 874F7-Hu1 (antibody, human IgG4 S228P, kappa, also called 874F7-Hul; humanized antibody 874F7-Hu1) heavy: not shown light: DIQMTQSPSSVSASVGDRVTITCLASQTIGAWLAWYQQKPGKSPKLLIYAATRLADGVPSRFSGSGSGTDFTLTISSLQPEDFATYYCQQLDSSPYTFGQGTKVEIKRTVAAPSVFIFPPSDEQLKSGTASVVCLLNNFYPREAKVQWKVDNALQSGNSQESVTEQDSKDSTYSLSSTLTLSKADYEKHKVYACEVTHQGLSSPVTKSFNRGEC
